# Measured values from patent US20250011739, “ENGINEERED CAS PROTEIN AND USE THEREOF” (SHANDONG SHUNFENG BIOTECHNOLOGY CO.LTD., published 2025).
# Substitutions are numbered along the chain they refer to.
# T1: enCas-SF02 (Cas12j19 E100K-S400R-L763R-S45T) (E100K,S400R,L763R,S45T)
# T1 chain: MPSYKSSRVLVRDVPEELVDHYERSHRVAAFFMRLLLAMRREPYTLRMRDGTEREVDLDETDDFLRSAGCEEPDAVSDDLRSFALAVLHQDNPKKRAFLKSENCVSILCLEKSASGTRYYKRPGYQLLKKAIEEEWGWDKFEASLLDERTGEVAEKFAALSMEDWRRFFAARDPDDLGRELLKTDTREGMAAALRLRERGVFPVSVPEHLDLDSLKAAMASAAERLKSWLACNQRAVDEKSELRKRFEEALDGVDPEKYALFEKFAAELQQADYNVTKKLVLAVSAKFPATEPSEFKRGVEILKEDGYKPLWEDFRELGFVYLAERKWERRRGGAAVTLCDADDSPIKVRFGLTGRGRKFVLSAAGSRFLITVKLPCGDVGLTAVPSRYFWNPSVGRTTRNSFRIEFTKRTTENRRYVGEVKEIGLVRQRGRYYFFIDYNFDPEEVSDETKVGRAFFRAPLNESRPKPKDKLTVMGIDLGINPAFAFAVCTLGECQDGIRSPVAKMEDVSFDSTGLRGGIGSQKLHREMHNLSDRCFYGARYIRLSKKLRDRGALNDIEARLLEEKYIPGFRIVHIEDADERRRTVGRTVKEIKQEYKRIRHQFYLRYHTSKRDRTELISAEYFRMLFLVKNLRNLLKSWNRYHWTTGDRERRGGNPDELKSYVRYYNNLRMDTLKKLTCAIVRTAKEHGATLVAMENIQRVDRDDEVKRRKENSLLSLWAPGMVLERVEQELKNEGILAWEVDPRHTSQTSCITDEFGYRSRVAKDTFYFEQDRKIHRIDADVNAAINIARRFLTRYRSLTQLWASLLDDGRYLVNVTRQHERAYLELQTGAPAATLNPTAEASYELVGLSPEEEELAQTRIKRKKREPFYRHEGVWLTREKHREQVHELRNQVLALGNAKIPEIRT
# T2: Cas12j19 E100K-S400R-L763R (E100K,S400R,L763R)
# T2 chain: T1 chain with T45S
# T3: Cas12j19 WT
# T3 chain: T1 chain with T45S, K100E, R400S, R763L
# B1: Cas12j19 FUT8-3 guide (DR + spacer, order inferred) ; FUT8-3 target (ssRNA ; dsDNA)
# RNA: GUGCUGCUGUCUCCCAGACGGGAGGCAGAACUGCACGAGGCUGUCUACAAUGGGGA
# DNA 1: ATGGAGGCTGTCTACAATGGGGA
# DNA 2: TCCCCATTGTAGACAGCCTCCAT
# Columns and labels:
# Assay in all cases: cell_activity; PAM ATG; GFP reporter in CHO cells
# enCas-SF02 (Cas12j19 …) = molecular target: T1, enCas-SF02 (Cas12j19 …)
# Text: (§1) With reference to (Yang, Yi, et al. “Highly efficient and rapid detection of the cleavage activity of Cas9/gRNA via a fluorescent reporter.” Applied biochemistry and biotechnology 180.4 (2016): 655-667.), a fluorescent reporter system for verification of Cas12j19 cleavage was constructed, where a fluorescent reporter vector carried an RFP and a non-luminous GFFP, and a Cas vector carried a CFP. A target FUT8-3: […] (SEQ ID NO: 28) on a GFFP sequence was selected for testing, where an underlined part was a PAM sequence. A DR sequence was […] (SEQ ID NO: 29). 48 h after a CHO cell was transfected, a proportion of GFP fluorescence in CFP and RFP fluorescence was determined by FCM to determine an editing efficiency.
# (§2) In this example, in SEQ ID NO: 19, an amino acid 100 was mutated into K, an amino acid 400 was mutated into R, and an amino acid 763 was mutated into R to obtain a three site-mutated protein E100K-S400R-L763R; and in SEQ ID NO: 19, an amino acid 100 was mutated into K, an amino acid 400 was mutated into R, an amino acid 763 was mutated into R, and an amino acid 45 was mutated into T to obtain a four site-mutated protein E100K-S400R-L763R-S45T.
# [1] = molecular target: T2, Cas12j19 E100K-S400R-L763R
# Text: as §1, §2
# Cas12j19 WT = molecular target: T3, Cas12j19 WT
# Text: as §1, §2
binder,measurement,setting,value
B1,activity,enCas-SF02 (Cas12j19 …),~90%
same,activity,[1],~90%
same,activity,Cas12j19 WT,~6%
